Assay results reported in publication PMC6458997, “Deciphering the Molecular Mechanism Underpinning Phage Arbitrium Communication Systems” (Molecular Cell, 2019).

B1: unnamed (parent)
chain 1: MELIRIAMKKDLENDNSLMNKWATVAGLKNPNPLYDFLNHDGKTFNEFSSIVNIVKSQYPDREYELMKDYCLNLDVKTKAARSALEYADANMFFEIEDVLIDSMISCSNMKSKEYGKVYKIHRELSNSVITEFEAVKRLGKLNIKTPEMNSFSRLLLLYHYLSTGNFSPMAQLIKQIDLSEISENMYIRNTYQTRVHVLMSNIKLNENSLEECREYSKKALESTNILRFQVFSYLTIGNSLLFSNYELAQENFLKGLSISVQNENYNMIFQQALCFLNNVWRKENKWINFESDSIMDLQEQAHCFINFNENSKAKEVLDKLDLLVHNDNELAMHYYLKGRLEQNKACFYSSIEYFKKSNDKFLIRLPLLELQKMGENQKLLELLLL
chain 2: not shown

Variants of: B1
Test: thermal shift assay
Conditions: with partner chain of the complex shown; AimR + AimP; one of three independent experiments

Variant | screen value [°C]
chain 1 D360A | 44.4
chain 1 N202A | 50.9
